Measurements: paper PMC6454087

Target: mouse rec1c sNASP variant protein (V281I, L282F) (mouse)
Experiment: BLI; Octet K2, 30 C; sNASP WT or variant immobilised on aminopropylsilane (APS) biosensors, histones in assay buffer at various concentrations (62.5 to 1,000 nM shown for H4), association 240 s; n = 4

Kd: 412 nM
kon: 9590 M⁻¹ s⁻¹
B1: mouse histone H1a (natural protein)
chain: MSETAPVAQAASTATEKPAAAKKTKKPAKAAAPRKKPAGPSVSELIVQAVSSSKERSGVSLAALKKSLAAAGYDVEKNNSRIKLGLKSLVNKGTLVQTKGTGAAGSFKLNKKAESKAITTKVSVKAKASGAAKKPKKTAGAAAKKTVKTPKKPKKPAVSKKTSKSPKKPKVVKAKKVAKSPAKAKAVKPKASKAKVTKPKTPAKPKKAAPKKK
